Measurements from patent US6590086.
Values joined by “and” are separate entries in the source; they are usually repeats but may differ in a detail not shown here. Identical values can stand only once.

How the values were obtained:
[1] = target: SV40 large T antigen (SV40) (UniProt P03070); assay: in vitro phosphorylation of the large T:Rb complex, immunoprecipitation with anti-large T antibody
[2] = target: SV40 large T antigen (SV40), P03070; assay: as above; settings: remark: other sources report otherwise

Molecule: RB-E (from UniProt P06400 2-928)
- percent of the Rb protein released from large T by phosphorylation [1]: 70%

B1: RB-H, P06400 2-928 (protein)
chain: PPKTPRKTAATAAAAAAEPPAPPPPPPPEEDPEQDSGPEDLPLVRLEFEETEEPDFTALCQKLKIPDHVRERAWLTWEKVSSVDGVLGGYIQKKKELWGICIFIAAVDLDEMSFTFTELQKNIEISVHKFFNLLKEIDTSTKVDNAMSRLLKKYDVLFALFSKLERTCELIYLTQPSSSISTEINSALVLKVSWITFLLAKGEVLQMEDDLVISFQLMLCVLDYFIKLSPPMLLKEPYKTAVIPINGSPRTPRRGQNRSARIAKQLENDTRIIEVLCKEHECNIDEVKNVYFKNFIPFMNSLGLVTSNGLPEVENLSKRYEEIYLKNKDLDARLFLDHDKTLQTDSIDSFETQRTPRKSNLDEEVNVIPPHTPVRTVMNTIQQLMMILNSASDQPSENLISYFNNCTVNPKESILKRVKDIGYIFKEKFAKAVGQGCVEIGSQRYKLGVRLYYRVMESMLKSEEERLSIQNFSKLLNDNIFHMSLLACALEVVMATYSRSTSQNLDSGTDLSFPWILNVLNLKAFDFYKVIESFIKAEGNLTREMIKHLERCEHRIMESLAWLSDSPLFDLIKQSKDREGPTDHLESACPLNLPLQNNHTAADMYLSPVRSPKKKGSTTRVNSTANAETQATSAFQTQKPLKSTSLSLFYKKVYRLAYLRLNTLCERLLSEHPELEHIIWTLFQHTLQNEYELMRDRHLDQIMMCSMYGICKVKNIDLKFKIIVTAYKDLPHAVQETFKRVLIKEEEYDSIIVFYNSVFMQRLKTNILQYASTRPPTLSPIPHIPRSPYKFPSSPLRIPGGNIYISPLKSPYKISEGLPTPTKMTPRSRILVSIGESFGTSEKFQKINQMVCNSDRVLKRSAEGSNPPKPLKKLRFDIEGSDEADGSKHLPGESKFQQKLAEMTSTRTRMQKQKMNDSMDTSNKEEK
- percent of the Rb protein that remained bound after phosphorylation [2]: 20% and 30%
